B1: Transient receptor potential protein (Drosophila melanogaster (Fruit fly)), P19334 (parent)
chain: MGSNTESDAEKALGSRLDYDLMMAEEYILSDVEKNFILSCERGDLPGVKKILEEYQGTDKFNINCTDPMNRSALISAIENENFDLMVILLEHNIEVGDALLHAISEEYVEAVEELLQWEETNHKEGQPYSWEAVDRSKSTFTVDITPLILAAHRNNYEILKILLDRGATLPMPHDVKCGCDECVTSQMTDSLRHSQSRINAYRALSASSLIALSSRDPVLTAFQLSWELKRLQAMESEFRAEYTEMRQMVQDFGTSLLDHARTSMELEVMLNFNHEPSHDIWCLGQRQTLERLKLAIRYKQKTFVAHPNVQQLLAAIWYDGLPGFRRKQASQQLMDVVKLGCSFPIYSLKYILAPDSEGAKFMRKPFVKFITHSCSYMFFLMLLGAASLRVVQITFELLAFPWMLTMLEDWRKHERGSLPGPIELAIITYIMALIFEELKSLYSDGLFEYIMDLWNIVDYISNMFYVTWILCRATAWVIVHRDLWFRGIDPYFPREHWHPFDPMLLSEGAFAAGMVFSYLKLVHIFSINPHLGPLQVSLGRMIIDIIKFFFIYTLVLFAFGCGLNQLLWYYAELEKNKCYHLHPDVADFDDQEKACTIWRRFSNLFETSQSLFWASFGLVDLVSFDLAGIKSFTRFWALLMFGSYSVINIIVLLNMLIAMMSNSYQIISERADTEWKFARSQLWMSYFEDGGTIPPPFNLCPNMKMLRKTLGRKRPSRTKSFMRKSMERAQTLHDKVMKLLVRRYITAEQRRRDDYGITEDDIIEVRQDISSLRFELLEIFTNNNWDVPDIEKKSQGVARTTKGKVMERRILKDFQIGFVENLKQEMSESESGRDIFSSLAKVIGRKKTQKGDKDWNAIARKNTFASDPIGSKRSSMQRHSQRSLRRKIIEQANEGLQMNQTQLIEFNPNLGDVTRATRVAYVKFMRKKMAADEVSLADDEGAPNGEGEKKPLDASGSKKSITSGGTGGGASMLAAAALRASVKNVDEKSGADGKPGTMGKPTDDKKAGDDKDKQQPPKDSKPSAGGPKPGDQKPTPGAGAPKPQAAGTISKPGESQKKDAPAPPTKPGDTKPAAPKPGESAKPEAAAKKEESSKTEASKPAATNGAAKSAAPSAPSDAKPDSKLKPGAAGAPEATKATNGASKPDEKKSGPEEPKKAAGDSKPGDDAKDKDKKPGDDKDKKPGDDKDKKPADNNDKKPADDKDKKPGDDKDKKPGDDKDKKPSDDKDKKPADDKDKKPAAAPLKPAIKVGQSSAAAGGERGKSTVTGRMISGWL

Variants of: B1
Settings: with inad_drome inaD

Variant | effect of a mutation on the interaction
V1266A | decreasing interaction
V1266A;W1274A | disrupting interaction

Reference: IntAct's records for PubMed 21703451
